Measurements from patent US20230389573A1.

Legend:
[1] = biological target: SOP1 gelatine extracted from blue whiting skin and bone
[2] = biological target: SOP2 gelatine extracted from blue whiting skin and bone
[3] = biological target: Angiotensin-converting enzyme-I (ACE-1)
[4] = biological target: Angiotensin-converting enzyme-I (ACE-1); remark: listed apart in the source

## Alcalase (EC number 3.4.21.62) (from UniProt P00780) (enzyme)
[1]
  degree of hydrolysis (DH) after 4 h, pH-stat method: 1.87%
[2]
  degree of hydrolysis (DH) after 4 h, pH-stat method: 2.54%

## Papain (EC number 3.4.22.2) (from UniProt P00784) (enzyme)
[1]
  degree of hydrolysis (DH) after 4 h, pH-stat method: 20.4%
[2]
  degree of hydrolysis (DH) after 4 h, pH-stat method: 19.4%

## SOP1 gelatine papain hydrolysate (blue whiting skin and bone) (pool or library)
[3]
  % ACE-1 inhibition at 1 mg/ml: 73.1%

## Mackerel 3 KDa permeate (blood water fraction) (pool or library)
[4]
  % ACE-I inhibition at 1 mg/mL: 83.9%
Renin
  % Renin inhibition at 1 mg/mL: 21%

## ≤3 KDa peptide fraction of the SOP1 gelatine papain hydrolysate (pool or library)
[3]
  % ACE-1 inhibition at 1 mg/ml: 80.5%

## Blue whiting 10 KDa permeate (blood water fraction) (pool or library)
[4]
  % ACE-I inhibition at 1 mg/mL: 33.1%

## Blue whiting 3 KDa permeate (blood water fraction) (pool or library)
[4]
  % ACE-I inhibition at 1 mg/mL: 28.9%
Renin
  % Renin inhibition at 1 mg/mL: 10.6%

## Mackerel retentate (blood water fraction) (pool or library)
[4]
  % ACE-I inhibition at 1 mg/mL: 95.4%

## SOP1 gelatine alcalase hydrolysate (blue whiting skin and bone) (pool or library)
[3]
  % ACE-1 inhibition at 1 mg/ml: 26.8%

## ≤3 KDa peptide fraction of the SOP1 gelatine alcalase hydrolysate (pool or library)
[3]
  % ACE-1 inhibition at 1 mg/ml: 84.2%

## Mackerel 10 KDa permeate (blood water fraction) (pool or library)
[4]
  % ACE-I inhibition at 1 mg/mL: 96.9%

## Blue whiting retentate (blood water fraction) (pool or library)
[4]
  % ACE-I inhibition at 1 mg/mL: 59.4%

## ≤3 KDa peptide fraction of the SOP2 gelatine alcalase hydrolysate (pool or library)
[3]
  % ACE-1 inhibition at 1 mg/ml: 87.1%

## ≤3 KDa peptide fraction of the SOP2 gelatine papain hydrolysate (pool or library)
[3]
  % ACE-1 inhibition at 1 mg/ml: 84.5%

## SOP2 gelatine alcalase hydrolysate (blue whiting skin and bone) (pool or library)
[3]
  % ACE-1 inhibition at 1 mg/ml: 25.1%

## SOP2 gelatine papain hydrolysate (blue whiting skin and bone) (pool or library)
[3]
  % ACE-1 inhibition at 1 mg/ml: 71.1%
